What all share (format): biochemical
Data set [1] in a line: OHB decarboxylase activity (coupled to YqhD, NADPH). The conditions noted are these: for OHB decarboxylase activity (in words): wild-type enzymes; for Effect of mutation on activity and/or specificity for OHB (in words): versus wild-type enzyme. The protocol:
OHB decarboxylase activity was assayed by coupling the decarboxylase activity to the NADPH-dependent reduction of the released 3-hydroxypropanal by purified aldehyde reductase, YqhD, from E. coli. The decarboxylation of pyruvate was coupled to the NADH-dependent reduction of acetaldehyde catalysed by yeast alcohol dehydrogenase. Branched-chain alpha-ketoacid decarboxylase activity was measured on 4-methyl-2-oxovaleric acid by coupling to the NADH-dependent reduction of 3-methylbutanal catalysed by horse liver alcohol dehydrogenase. […] Reactions were started by adding 20 mM 2-oxo-4-hydroxybutyrate (OHB), 10 mM 4-methyl-2-oxovaleric acid (MOV), or 5 mM pyruvate.

Data set [2] is described as follows: Pyruvate decarboxylase activity (coupled to yeast alcohol dehydrogenase). The procedure: OHB decarboxylase activity was assayed by coupling the decarboxylase activity to the NADPH-dependent reduction of the released 3-hydroxypropanal by purified aldehyde reductase, YqhD, from E. coli. The decarboxylation of pyruvate was coupled to the NADH-dependent reduction of acetaldehyde catalysed by yeast alcohol dehydrogenase. Branched-chain alpha-ketoacid decarboxylase activity was measured on 4-methyl-2-oxovaleric acid by coupling to the NADH-dependent reduction of 3-methylbutanal catalysed by horse liver alcohol dehydrogenase. […]

Data set [3] can be described thus: Lactate dehydrogenase activity (natural substrate). The conditions noted are these: for Max. specific activity, Natural substrate: natural substrate (L)-lactate, Table 2.
Data set [4] is described as follows: DHB dehydrogenase activity of membrane-associated enzyme (DHB-dependent reduction of DCIP). The procedure:
Activity of the membrane-associated DHB dehydrogenase (Ec-LldD) was assayed by following the DHB-dependent reduction of 2,6-dichloroindophenol (DCIP). (L)-2,4-dihydroxybutyrate+DCIPox→2-oxo-4-hydroxybutyrate+DCIPred Reaction scheme 2:
Reactions were started by adding 20 mM (L)-2,4-dihydroxybutyrate (Rhodia).

Data set [5] in a line: DHB dehydrogenase activity of cytosolic enzymes (DHB-dependent reduction of NAD+).
Method: Activity of the cytosolic DHB dehydrogenases (Ec-Mdh, Bs-Mdh, Ll-LdhA) was assayed by following the DHB-dependent reduction of NAD^+.
The reaction mixture contained 60 mM Hepes (pH 8), 50 mM potassium chloride, 5 mM MgCl2, 10 mM NAD, (optionally, 5 mM fructose-1,6-bisphosphate (F16bP)) (all products from Sigma), and appropriate amounts of purified enzyme or cell extract. Reactions were started by adding 50 mM (L)-2,4-dihydroxybutyrate (Rhodia).
All enzymatic assays were carried out at 37° C. in 96-well flat bottomed microtiter plates in a final volume of 250 μL. The reactions were followed by the characteristic absorption of NADH at 340 nm (εNADH=6.22 mM^−1 cm^−1) or the absorbtion of DCIP at 655 nm (εDCIP=5.9 mM^−1 cm^−1) in a microplate reader (BioRad 680XR).
Where [6] appears, read: when not saturated, activity estimated at 20 mM substrate, Table 8.
[7] abbreviates: natural substrate pyruvate, Table 8.
Where [8] appears, read: activity measured at 20 mM OHB, Table 10.
The mark [9] stands for this setting: activity measured at 50 mM pyruvate (Pdc mutants), Table 10.

B1: Sc-Pdc1: pyruvate decarboxylase of Saccharomyces cerevisiae, SEQ ID No. 208 (protein, listed as Saccharomyces cerevisiae)
chain: MSEITLGKYLFERLKQVNVNTVFGLPGDFNLSLLDKIYEVEGMRWAGNANELNAAYAADGYARIKGMSCIITTFGVGELSALNGIAGSYAEHVGVLHVVGVPSISAQAKQLLLHHTLGNGDFTVFHRMSANISETTAMITDIATAPAEIDRCIRTTYVTQRPVYLGLPANLVDLNVPAKLLQTPIDMSLKPNDAESEKEVIDTILALVKDAKNPVILADACCSRHDVKAETKKLIDLTQFPAFVTPMGKGSIDEQHPRYGGVYVGTLSKPEVKEAVESADLILSVGALLSDFNTGSFSYSYKTKNIVEFHSDHMKIRNATFPGVQMKFVLQKLLTTIADAAKGYKPVAVPARTPANAAVPASTPLKQEWMWNQLGNFLQEGDVVIAETGTSAFGINQTTFPNNTYGISQVLWGSIGFTTGATLGAAFAAEEIDPKKRVILFIGDGSLQLTVQEISTMIRWGLKPYLFVLNNDGYTIEKLIHGPKAQYNEIQGWDHLSLLPTFGAKDYETHRVATTGEWDKLTQDKSFNDNSKIRMIEIMLPVFDAPQNLVEQAKLTAATNAKQ
Take B1: the “Max. specific activity, OHB” value in data set [1] (setting [6]) is 0.055 µmol/mg/min. The “OHB decarboxylase activity (in words)” value in data set [1] is recorded as “significant OHB decarboxylase activity”. Moreover, the “Max. specific activity, Natural substrate” value in data set [2] (setting [7]) was 1.3 µmol/mg/min.

B2: Zm-Pdc: pyruvate decarboxylase of Zymomonas mobilis, SEQ ID No. 128 (protein, listed as Zymomonas mobilis)
chain: MSYTVGTYLAERLVQIGLKHHFAVAGDYNLVLLDNLLLNKNMEQVYCCNELNCGFSAEGYARAKGAAAAVVTYSVGALSAFDAIGGAYAENLPVILISGAPNNNDHAAGHVLHHALGKTDYHYQLEMAKNITAAAEAIYTPEEAPAKIDHVIKTALREKKPVYLEIACNIASMPCAAPGPASALFNDEASDEASLNAAVEETLKFIANRDKVAVLVGSKLRAAGAEEAAVKFADALGGAVATMAAAKSFFPEENPHYIGTSWGEVSYPGVEKTMKEADAVIALAPVFNDYSTTGWTDIPDPKKLVLAEPRSVVVNGIRFPSVHLKDYLTRLAQKVSKKTGALDFFKSLNAGELKKAAPADPSAPLVNAEIARQVEALLTPNTTVIAETGDSWFNAQRMKLPNGARVEYEMQWGHIGWSVPAAFGYAVGAPERRNILMVGDGSFQLTAQEVAQMVRLKLPVIIFLINNYGYTIEVMIHDGPYNNIKNWDYAGLMEVFNGNGGYDSGAGKGLKAKTGGELAEAIKVALANTDGPTLIECFIGREDCTEELVKWGKRVAAANSRKPVNKLL
As for B2, the “Max. specific activity, OHB” value in data set [1] (setting [6]) was 0.052 µmol/mg/min. In data set [1], the “OHB decarboxylase activity (in words)” value was “significant OHB decarboxylase activity”. For the same molecule, the “Max. specific activity, Natural substrate” value in data set [2] (setting [7]) amounted to 65 µmol/mg/min.

B3: Zm-Pdc W392L: Z. mobilis pyruvate decarboxylase mutant W392L, SEQ ID No. 192 (protein, listed as Zymomonas mobilis)
chain: MSYTVGTYLAERLVQIGLKHHFAVAGDYNLVLLDNLLLNKNMEQVYCCNELNCGFSAEGYARAKGAAAAVVTYSVGALSAFDAIGGAYAENLPVILISGAPNNNDHAAGHVLHHALGKTDYHYQLEMAKNITAAAEAIYTPEEAPAKIDHVIKTALREKKPVYLEIACNIASMPCAAPGPASALFNDEASDEASLNAAVEETLKFIANRDKVAVLVGSKLRAAGAEEAAVKFADALGGAVATMAAAKSFFPEENPHYIGTSWGEVSYPGVEKTMKEADAVIALAPVFNDYSTTGWTDIPDPKKLVLAEPRSVVVNGIRFPSVHLKDYLTRLAQKVSKKTGALDFFKSLNAGELKKAAPADPSAPLVNAEIARQVEALLTPNTTVIAETGDSLFNAQRMKLPNGARVEYEMQWGHIGWSVPAAFGYAVGAPERRNILMVGDGSFQLTAQEVAQMVRLKLPVIIFLINNYGYTIEVMIHDGPYNNIKNWDYAGLMEVFNGNGGYDSGAGKGLKAKTGGELAEAIKVALANTDGPTLIECFIGREDCTEELVKWGKRVAAANSRKPVNKLL
Regarding B3, in data set [1] (setting [8]), the “Max. specific activity, OHB” value turned out to be 0.04 µmol/mg/min. For the same molecule, the “Effect of mutation on activity and/or specificity for OHB (in words)” value (“Effect of mutation” below) in data set [1] was “increased activity and/or specificity for OHB”. In addition, the “Max. specific activity, Natural substrate” value in data set [2] (setting [9]) worked out at 0.09 µmol/mg/min.

B4: Zm-Pdc G413N: Z. mobilis pyruvate decarboxylase mutant G413N, SEQ ID No. 194 (protein, listed as Zymomonas mobilis)
chain: MSYTVGTYLAERLVQIGLKHHFAVAGDYNLVLLDNLLLNKNMEQVYCCNELNCGFSAEGYARAKGAAAAVVTYSVGALSAFDAIGGAYAENLPVILISGAPNNNDHAAGHVLHHALGKTDYHYQLEMAKNITAAAEAIYTPEEAPAKIDHVIKTALREKKPVYLEIACNIASMPCAAPGPASALFNDEASDEASLNAAVEETLKFIANRDKVAVLVGSKLRAAGAEEAAVKFADALGGAVATMAAAKSFFPEENPHYIGTSWGEVSYPGVEKTMKEADAVIALAPVFNDYSTTGWTDIPDPKKLVLAEPRSVVVNGIRFPSVHLKDYLTRLAQKVSKKTGALDFFKSLNAGELKKAAPADPSAPLVNAEIARQVEALLTPNTTVIAETGDSWFNAQRMKLPNGARVEYEMQWNHIGWSVPAAFGYAVGAPERRNILMVGDGSFQLTAQEVAQMVRLKLPVIIFLINNYGYTIEVMIHDGPYNNIKNWDYAGLMEVFNGNGGYDSGAGKGLKAKTGGELAEAIKVALANTDGPTLIECFIGREDCTEELVKWGKRVAAANSRKPVNKLL
As to B4, in data set [1] (setting [8]), the “Max. specific activity, OHB” value was found to be 0.04 µmol/mg/min. The “Effect of mutation” value in data set [1] is “increased activity and/or specificity for OHB”. For the same molecule, the “Max. specific activity, Natural substrate” value in data set [2] (setting [9]) turned out to be 0.1 µmol/mg/min.

B5: Zm-Pdc W392Q: Z. mobilis pyruvate decarboxylase mutant W392Q, SEQ ID No. 190 (protein, listed as Zymomonas mobilis)
chain: MSYTVGTYLAERLVQIGLKHHFAVAGDYNLVLLDNLLLNKNMEQVYCCNELNCGFSAEGYARAKGAAAAVVTYSVGALSAFDAIGGAYAENLPVILISGAPNNNDHAAGHVLHHALGKTDYHYQLEMAKNITAAAEAIYTPEEAPAKIDHVIKTALREKKPVYLEIACNIASMPCAAPGPASALFNDEASDEASLNAAVEETLKFIANRDKVAVLVGSKLRAAGAEEAAVKFADALGGAVATMAAAKSFFPEENPHYIGTSWGEVSYPGVEKTMKEADAVIALAPVFNDYSTTGWTDIPDPKKLVLAEPRSVVVNGIRFPSVHLKDYLTRLAQKVSKKTGALDFFKSLNAGELKKAAPADPSAPLVNAEIARQVEALLTPNTTVIAETGDSQFNAQRMKLPNGARVEYEMQWGHIGWSVPAAFGYAVGAPERRNILMVGDGSFQLTAQEVAQMVRLKLPVIIFLINNYGYTIEVMIHDGPYNNIKNWDYAGLMEVFNGNGGYDSGAGKGLKAKTGGELAEAIKVALANTDGPTLIECFIGREDCTEELVKWGKRVAAANSRKPVNKLL
For the molecule B5, the “Max. specific activity, OHB” value in data set [1] (setting [8]) is 0.19 µmol/mg/min. Further, the “Effect of mutation” value in data set [1] is given as “increased activity and/or specificity for OHB”. In addition, in data set [2] (setting [9]), the “Max. specific activity, Natural substrate” value was 1.39 µmol/mg/min.

B6: Ec-LldD: membrane associated (L)-lactate dehydrogenase of E. coli, SEQ ID No. 122 (protein, listed as Escherichia coli)
chain: MIISAASDYRAAAQRILPPFLFHYMDGGAYSEYTLRRNVEDLSEVALRQRILKNMSDLSLETTLFNEKLSMPVALAPVGLCGMYARRGEVQAAKAADAHGIPFTLSTVSVCPIEEVAPAIKRPMWFQLYVLRDRGFMRNALERAKAAGCSTLVFTVDMPTPGARYRDAHSGMSGPNAAMRRYLQAVTHPQWAWDVGLNGRPHDLGNISAYLGKPTGLEDYIGWLGNNFDPSISWKDLEWIRDFWDGPMVIKGILDPEDARDAVRFGADGIVVSNHGGRQLDGVLSSARALPAIADAVKGDIAILADSGIRNGLDVVRMIALGADTVLLGRAFLYALATAGQAGVANLLNLIEKEMKVAMTLTGAKSISEITQDSLVQGLGKELPAALAPMAKGNAA
For B6, in data set [3] (E. coli LldD, Table 6), the “Max. specific activity, lactate” value stood at 6.22 µmol/mg/min. Besides, the “Max. specific activity, Natural substrate” value in data set [3] came to 6.22 µmol/mg/min. The Specificity in data set [4] ((Vmax/Km)DHB/(Vmax/Km)nat. substrate, natural substrate lactate) was determined as 0.006. Moreover, the “Max. specific activity, DHB” value was 0.37 µmol/mg/min in data set [4] (DCIP assay, Table 2) and 0.37 µmol/mg/min in data set [4] (E. coli LldD, Table 6). Moreover, the “DHB dehydrogenase activity (in words)” value in data set [4] (membrane-associated enzyme) is recorded as “have DHB dehydrogenase activity”.

B7: Ll-LdhA: (L)-lactate dehydrogenase of Lactococcus lactis, cytosolic, SEQ ID No. 120 (protein, listed as Lactococcus lactis)
chain: MADKQRKKVILVGDGAVGSSYAFALVNQGIAQELGIVDLFKEKTQGDAEDLSHALAFTSPKKIYSADYSDASDADLVVLTSGAPQKPGETRLDLVEKNLRITKDVVTKIVASGFKGIFLVAANPVDILTYATWKFSGFPKNRVVGSGTSLDTARFRQALAEKVDVDARSIHAYIMGEHGDSEFAVWSHANVAGVKLEQWFQENDYLNEAEIVELFESVRDAAYSIIAKKGATFYGVAVALARITKAILDDEHAVLPVSVFQDGQYGVSDCYLGQPAVVGAEGVVNPIHIPLNDAEMQKMEASGAQLKAIIDEAFAKEEFASAVKN
Take B7: the “Max. specific activity, Natural substrate” value in data set [3] was 8.8 µmol/mg/min. Also, the “DHB dehydrogenase activity (in words)” value in data set [5] (cytosolic wild-type enzymes) is listed as “have DHB dehydrogenase activity”. In addition, the “Max. specific activity, DHB” value in data set [5] (when not saturated, activity estimated at 50 mM substrate, Table 2) is 1 µmol/mg/min.
